Test results published in patent US20240174744A1 (SCIRHOM, published 2024).
Residue numbers refer to the chain shown, from its start.

T1: human iRhom1, endogenously expressed on RH-30 cells (human, UniProt Q96CC6 1-855)
T1 construct: RH-30 cells are described as endogenously negative for iRhom2 but endogenously expressing iRhom1; also called NP_071895.3
T1 sequence: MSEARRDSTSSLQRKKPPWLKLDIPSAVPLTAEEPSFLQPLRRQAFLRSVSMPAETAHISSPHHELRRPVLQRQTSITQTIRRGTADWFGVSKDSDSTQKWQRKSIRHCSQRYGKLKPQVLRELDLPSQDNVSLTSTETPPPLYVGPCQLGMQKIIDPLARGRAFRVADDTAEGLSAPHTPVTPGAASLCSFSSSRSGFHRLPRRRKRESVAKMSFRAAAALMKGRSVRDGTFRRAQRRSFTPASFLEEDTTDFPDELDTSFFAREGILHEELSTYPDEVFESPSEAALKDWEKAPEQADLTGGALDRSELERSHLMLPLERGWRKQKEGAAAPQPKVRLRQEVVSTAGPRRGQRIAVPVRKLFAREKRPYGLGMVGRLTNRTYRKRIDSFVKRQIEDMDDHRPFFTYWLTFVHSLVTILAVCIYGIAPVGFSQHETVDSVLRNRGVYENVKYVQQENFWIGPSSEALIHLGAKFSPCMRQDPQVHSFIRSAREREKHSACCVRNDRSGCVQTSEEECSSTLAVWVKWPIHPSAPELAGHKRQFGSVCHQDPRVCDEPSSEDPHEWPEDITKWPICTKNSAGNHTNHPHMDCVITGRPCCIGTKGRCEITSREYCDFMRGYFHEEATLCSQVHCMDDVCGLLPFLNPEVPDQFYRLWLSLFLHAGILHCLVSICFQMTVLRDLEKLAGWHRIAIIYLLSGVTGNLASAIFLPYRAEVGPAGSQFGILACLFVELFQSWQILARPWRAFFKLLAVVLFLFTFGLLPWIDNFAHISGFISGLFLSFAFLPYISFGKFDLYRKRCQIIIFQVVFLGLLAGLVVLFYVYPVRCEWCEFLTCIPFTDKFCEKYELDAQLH

T2: miR2-FL-WT-FLAG (mouse iRhom2 full length wild type C-terminally tagged with the triple-FLAG epitope) (mouse, UniProt Q80WQ6 1-827)
T2 construct: also called expressed by MEF-DKO-miR2-FL-WT-FLAG cells
T2 sequence: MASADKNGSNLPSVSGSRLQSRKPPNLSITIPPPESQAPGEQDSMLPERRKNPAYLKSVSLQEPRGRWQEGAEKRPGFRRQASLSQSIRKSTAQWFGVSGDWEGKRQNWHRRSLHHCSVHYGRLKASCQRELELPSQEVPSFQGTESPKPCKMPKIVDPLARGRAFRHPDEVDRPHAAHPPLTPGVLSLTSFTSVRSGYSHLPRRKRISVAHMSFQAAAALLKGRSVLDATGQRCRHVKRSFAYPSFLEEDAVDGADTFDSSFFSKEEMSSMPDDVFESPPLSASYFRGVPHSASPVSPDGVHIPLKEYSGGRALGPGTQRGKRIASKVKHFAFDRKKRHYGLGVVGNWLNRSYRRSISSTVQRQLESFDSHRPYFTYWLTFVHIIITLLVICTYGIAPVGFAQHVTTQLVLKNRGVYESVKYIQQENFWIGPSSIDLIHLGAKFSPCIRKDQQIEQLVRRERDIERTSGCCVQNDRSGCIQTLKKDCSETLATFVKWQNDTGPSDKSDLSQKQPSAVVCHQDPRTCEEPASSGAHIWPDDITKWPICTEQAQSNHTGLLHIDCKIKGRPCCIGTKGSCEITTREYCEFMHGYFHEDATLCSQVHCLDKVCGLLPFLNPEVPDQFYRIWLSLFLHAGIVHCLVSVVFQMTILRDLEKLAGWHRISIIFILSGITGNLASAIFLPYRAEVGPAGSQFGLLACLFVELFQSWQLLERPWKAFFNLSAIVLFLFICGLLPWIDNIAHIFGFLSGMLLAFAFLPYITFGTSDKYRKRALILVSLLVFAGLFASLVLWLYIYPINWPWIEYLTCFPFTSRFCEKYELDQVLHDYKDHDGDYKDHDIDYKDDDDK

B1: antibody 22 (antibody, V domains shown)
VH: QVTLKESGPGILQPSQTLSLTCSFSGFSLSTFGMGVGWIRQPSGKGLEWLAHIWWDDEKYYNSALKSRLTISKATSKNQVFLKIANVDTADTATYYCARISNYGSNYWYFNVWGTGTTVTVSS
VL: QVVLTQSPALMSASPGEKVTMTCSAGSSVSYMYWYQQKPGSSPRVLIYDTSNLASGVPARFTGSGSGTSYSLTISRMEAEDAATYYCQQWNSYPLTFGAGTKLELK
notes: Mouse IgG, kappa light chain; also called clone #22; m22
B2: antibody 42 (antibody, V domains shown)
VH: B1 VH with F24L, M34R, S63P, A74D, K83R, S101Q, N111D
VL: LIVLTQSPAIMSASPGEKVTMTCGATSRISYMFWYQQKPGSSPRVLIYDTSNLASGVPVRFSGSGSGTSYSLTISRVEAEDVATYYCQQWNSYPLTFGAGTKLELK
notes: Mouse IgG, kappa light chain; also called clone #42; m42
B3: antibody 3 (antibody, V domains shown)
VH: QVTLKESGPGILQPSQTLSLTCSFSGFSLTTFAMGIGWVRQPSGKGLEWLAHIWWDGEKYNNPVLKSRLTISKDTSKNQVFLRIANVDTPDTATYYCARISSIYYIIDNWGQGTSVTVSS
VL: DIVLTQSPATLSVTPGHSVSLSCRASQSISNNLHWYQKKSHESPRLLIKYVSQSISGIPSRFSGSGSGTDFTLSINSVETEDFGMYFCQQSYNWPLTFGAGTKLELK
notes: Mouse IgG, kappa light chain; also called clone #3; purified antibody 3

Legend:
[1] = biological target: T1, human iRhom1, endogenously expressed on …; experiment: FACS, RH-30 cells (endogenous iRhom1, no iRhom2)
Protocol: In brief, human RPMI-8226 cells (Deutsche Sammlung von Mikroorganismen und Zellkulturen, Germany), THP-1 cells (American Type Culture Collection, USA) and RH-30 cells (Deutsche Sammlung von Mikroorganismen und Zellkulturen, Germany) were harvested with 10 mM EDTA in PBS, washed and resuspended in FACS buffer (PBS, 3% FBS, 0.05% sodium azide), and seeded in Nunc U-bottom 96-well plates (Thermo Fisher Scientific, USA) at approximately 2×10⁵ cells per well. In order to pellet cells and remove supernatants, the plates were centrifuged at 1,500 rpm and 4° C. for 3 minutes. For primary staining, cells were resuspended in 100 μl per well of either FACS buffer alone (controls), a 1:60 dilution of the hybridoma supernatant, the primary material leading to the antibodies 3, 16, 22 and 42 of the present disclosure in FACS buffer or 3 μg/ml of the antibodies 16, 22 and 42 of the present disclosure in FACS buffer and incubated on ice for 1 hour. Afterwards, plates were centrifuged at 1,500 rpm and 4° C. for 3 minutes and washed twice with 200 μl per well of FACS buffer. […] Finally, cells were resuspended in 150 μl per well of FACS buffer and analyzed using a BD Accuri™ C6 Plus flow cytometer (Becton Dickinson, Germany).

[2] = biological target: T2, miR2-FL-WT-FLAG (mouse iRhom2 full …); experiment: FACS on MEF-DKO-miR2-FL-WT-FLAG cells

Binder	binding result [1]	binding result [2]
B1	no binding (tested: 3 µg/ml)	
B2	no binding (tested: 3 µg/ml)	
B3		no binding (tested: 3 µg/ml)
